{
  "source": "patent US9993529B2",
  "about": "“Stable formulations of a hyaluronan-degrading enzyme” (Halozyme, Inc., priority 2011, dated 2018)",
  "experiment": "RP-HPLC insulin apparent solubility / percent recovery (content)",
  "conditions": "7 days at 2-8° C.",
  "protocol": "Apparent solubility was measured as the percent insulin recovery as compared to the initial formulations/conditions.\nSamples were prepared by withdrawing 100 μL from each vial at every time point and centrifuging prior to loading. Samples were stored in an autosampler at 4° C. prior to use, and were considered stable for 3 days after preparation. All samples were tested in duplicate.\nFor insulin, 20 μL was injected for each HPLC run.\nTo determine the apparent solubility, the peak area of insulin/insulin analog main peak and desamido peak were integrated and combined together to calculate the percentage relative to the standards. […] The data were processed using Design-Expert® 7.0 (StatEase) and the “historical data” feature. Insulin percent purity was expressed as the percent of main insulin versus all insulin species.",
  "data": [
    {"substance": "Regular Insulin: mature human insulin, SEQ ID NOS: 103 and 104", "values": [
      {"measurement": "Solubility of regular Insulin", "setting": "0.2% methylparaben + […] m-cresol, pH 6.6, NaCl 50 mM", "value": 15.3, "unit": "%"},
      {"measurement": "Solubility of regular Insulin", "setting": "0.2% methylparaben + […] m-cresol, pH 6.6, NaCl 80 mM", "value": 9.0, "unit": "%"},
      {"measurement": "Solubility of regular Insulin", "setting": "0.2% methylparaben + […] m-cresol, pH 6.6, NaCl 140 mM", "value": 5.8, "unit": "%"},
      {"measurement": "Solubility of regular Insulin", "setting": "0.2% methylparaben + […] m-cresol, pH 6.8, NaCl 50 mM", "value": 34.1, "unit": "%"},
      {"measurement": "Solubility of regular Insulin", "setting": "0.2% methylparaben + […] m-cresol, pH 6.8, NaCl 110 mM", "value": 11.4, "unit": "%"},
      {"measurement": "Solubility of regular Insulin", "setting": "0.2% methylparaben + […] m-cresol, pH 7.0, NaCl 50 mM", "value": 86.9, "unit": "%"},
      {"measurement": "Solubility of regular Insulin", "setting": "0.2% methylparaben + […] m-cresol, pH 7.0, NaCl 80 mM", "value": 46.6, "unit": "%"},
      {"measurement": "Solubility of regular Insulin", "setting": "0.2% methylparaben + […] m-cresol, pH 7.0, NaCl 140 mM", "value": 15.9, "unit": "%"},
      {"measurement": "Solubility of regular Insulin", "setting": "0.2% methylparaben + […] m-cresol, pH 7.2, NaCl 80 mM", "value": 90.6, "unit": "%"},
      {"measurement": "Solubility of regular Insulin", "setting": "0.2% methylparaben + […] m-cresol, pH 7.2, NaCl 110 mM", "value": 47.1, "unit": "%"},
      {"measurement": "Solubility of regular Insulin", "setting": "0.2% methylparaben + […] m-cresol, pH 7.2, NaCl 140 mM", "value": 32.9, "unit": "%"},
      {"measurement": "Solubility of regular Insulin", "setting": "0.2% methylparaben + […] m-cresol, pH 7.4, NaCl 50 mM", "value": 98.1, "unit": "%"},
      {"measurement": "Solubility of regular Insulin", "setting": "0.2% methylparaben + […] m-cresol, pH 7.4, NaCl 80 mM", "value": 97.7, "unit": "%"},
      {"measurement": "Solubility of regular Insulin", "setting": "0.2% methylparaben + […] m-cresol, pH 7.4, NaCl 110 mM", "value": 94.6, "unit": "%"},
      {"measurement": "Solubility of regular Insulin", "setting": "0.2% methylparaben + […] m-cresol, pH 7.4, NaCl 140 mM", "value": 59.1, "unit": "%"},
      {"measurement": "Solubility of regular Insulin", "setting": "0.2% methylparaben + […] m-cresol, pH 7.6, NaCl 50 mM", "value": 98.1, "unit": "%"},
      {"measurement": "Solubility of regular Insulin", "setting": "0.2% methylparaben + […] m-cresol, pH 7.6, NaCl 80 mM", "value": 97.9, "unit": "%"},
      {"measurement": "Solubility of regular Insulin", "setting": "0.2% methylparaben + […] m-cresol, pH 7.6, NaCl 140 mM", "value": 95.4, "unit": "%"},
      {"measurement": "Solubility of regular Insulin", "setting": "0.2% phenol + […] m-cresol, pH 6.6, NaCl 50 mM", "value": 26.8, "unit": "%"},
      {"measurement": "Solubility of regular Insulin", "setting": "0.2% phenol + […] m-cresol, pH 6.6, NaCl 80 mM", "value": 8.7, "unit": "%"},
      {"measurement": "Solubility of regular Insulin", "setting": "0.2% phenol + […] m-cresol, pH 6.6, NaCl 110 mM", "value": 6.5, "unit": "%"},
      {"measurement": "Solubility of regular Insulin", "setting": "0.2% phenol + […] m-cresol, pH 6.6, NaCl 140 mM", "value": 5.8, "unit": "%"},
      {"measurement": "Solubility of regular Insulin", "setting": "0.2% phenol + […] m-cresol, pH 6.8, NaCl 50 mM", "value": 38.4, "unit": "%"},
      {"measurement": "Solubility of regular Insulin", "setting": "0.2% phenol + […] m-cresol, pH 6.8, NaCl 80 mM", "value": 17.1, "unit": "%"},
      {"measurement": "Solubility of regular Insulin", "setting": "0.2% phenol + […] m-cresol, pH 6.8, NaCl 140 mM", "value": 6.5, "unit": "%"},
      {"measurement": "Solubility of regular Insulin", "setting": "0.2% phenol + […] m-cresol, pH 7.0, NaCl 50 mM", "value": 100.3, "unit": "%"},
      {"measurement": "Solubility of regular Insulin", "setting": "0.2% phenol + […] m-cresol, pH 7.0, NaCl 80 mM", "value": 35.7, "unit": "%"},
      {"measurement": "Solubility of regular Insulin", "setting": "0.2% phenol + […] m-cresol, pH 7.0, NaCl 110 mM", "value": 17.7, "unit": "%"},
      {"measurement": "Solubility of regular Insulin", "setting": "0.2% phenol + […] m-cresol, pH 7.0, NaCl 140 mM", "value": 11.6, "unit": "%"},
      {"measurement": "Solubility of regular Insulin", "setting": "0.2% phenol + […] m-cresol, pH 7.2, NaCl 80 mM", "value": 92.2, "unit": "%"},
      {"measurement": "Solubility of regular Insulin", "setting": "0.2% phenol + […] m-cresol, pH 7.2, NaCl 110 mM", "value": 37.4, "unit": "%"},
      {"measurement": "Solubility of regular Insulin", "setting": "0.2% phenol + […] m-cresol, pH 7.2, NaCl 140 mM", "value": 18.9, "unit": "%"},
      {"measurement": "Solubility of regular Insulin", "setting": "0.2% phenol + […] m-cresol, pH 7.4, NaCl 80 mM", "value": 99.2, "unit": "%"},
      {"measurement": "Solubility of regular Insulin", "setting": "0.2% phenol + […] m-cresol, pH 7.4, NaCl 110 mM", "value": 87.8, "unit": "%"},
      {"measurement": "Solubility of regular Insulin", "setting": "0.2% phenol + […] m-cresol, pH 7.4, NaCl 140 mM", "value": 40.6, "unit": "%"},
      {"measurement": "Solubility of regular Insulin", "setting": "0.2% phenol + […] m-cresol, pH 7.6, NaCl 80 mM", "value": 99.2, "unit": "%"},
      {"measurement": "Solubility of regular Insulin", "setting": "0.2% phenol + […] m-cresol, pH 7.6, NaCl 110 mM", "value": 98.5, "unit": "%"},
      {"measurement": "Solubility of regular Insulin", "setting": "0.2% phenol + […] m-cresol, pH 7.6, NaCl 140 mM", "value": 82.2, "unit": "%"},
      {"measurement": "Solubility of regular Insulin", "setting": "[…] phenol + […] m-cresol, pH 6.6, NaCl 50 mM", "value": 31.2, "unit": "%"},
      {"measurement": "Solubility of regular Insulin", "setting": "[…] phenol + […] m-cresol, pH 6.6, NaCl 80 mM", "value": 18.6, "unit": "%"},
      {"measurement": "Solubility of regular Insulin", "setting": "[…] phenol + […] m-cresol, pH 6.6, NaCl 140 mM", "value": 12.9, "unit": "%"},
      {"measurement": "Solubility of regular Insulin", "setting": "[…] phenol + […] m-cresol, pH 6.8, NaCl 50 mM", "value": 66.6, "unit": "%"},
      {"measurement": "Solubility of regular Insulin", "setting": "[…] phenol + […] m-cresol, pH 6.8, NaCl 80 mM", "value": 24.9, "unit": "%"},
      {"measurement": "Solubility of regular Insulin", "setting": "[…] phenol + […] m-cresol, pH 7.0, NaCl 50 mM", "value": 96.7, "unit": "%"},
      {"measurement": "Solubility of regular Insulin", "setting": "[…] phenol + […] m-cresol, pH 7.0, NaCl 80 mM", "value": 80.8, "unit": "%"},
      {"measurement": "Solubility of regular Insulin", "setting": "[…] phenol + […] m-cresol, pH 7.0, NaCl 110 mM", "value": 32.9, "unit": "%"},
      {"measurement": "Solubility of regular Insulin", "setting": "[…] phenol + […] m-cresol, pH 7.0, NaCl 140 mM", "value": 17.1, "unit": "%"},
      {"measurement": "Solubility of regular Insulin", "setting": "[…] phenol + […] m-cresol, pH 7.2, NaCl 80 mM", "value": 96.4, "unit": "%"},
      {"measurement": "Solubility of regular Insulin", "setting": "[…] phenol + […] m-cresol, pH 7.2, NaCl 110 mM", "value": 58.7, "unit": "%"},
      {"measurement": "Solubility of regular Insulin", "setting": "[…] phenol + […] m-cresol, pH 7.2, NaCl 140 mM", "value": 33.1, "unit": "%"},
      {"measurement": "Solubility of regular Insulin", "setting": "[…] phenol + […] m-cresol, pH 7.4, NaCl 50 mM", "value": 96.7, "unit": "%"},
      {"measurement": "Solubility of regular Insulin", "setting": "[…] phenol + […] m-cresol, pH 7.4, NaCl 80 mM", "value": 97.3, "unit": "%"},
      {"measurement": "Solubility of regular Insulin", "setting": "[…] phenol + […] m-cresol, pH 7.4, NaCl 110 mM", "value": 94.2, "unit": "%"},
      {"measurement": "Solubility of regular Insulin", "setting": "[…] phenol + […] m-cresol, pH 7.4, NaCl 140 mM", "value": 57.9, "unit": "%"},
      {"measurement": "Solubility of regular Insulin", "setting": "[…] phenol + […] m-cresol, pH 7.6, NaCl 50 mM", "value": 97.2, "unit": "%"},
      {"measurement": "Solubility of regular Insulin", "setting": "[…] phenol + […] m-cresol, pH 7.6, NaCl 80 mM", "value": 97.1, "unit": "%"},
      {"measurement": "Solubility of regular Insulin", "setting": "[…] phenol + […] m-cresol, pH 7.6, NaCl 110 mM", "value": 97.1, "unit": "%"},
      {"measurement": "Solubility of regular Insulin", "setting": "[…] phenol + […] m-cresol, pH 7.6, NaCl 140 mM", "value": 91.7, "unit": "%"}
    ]}
  ]
}
